Assay results as given in PMC2953525, “Subtle Alterations in PCNA-Partner Interactions Severely Impair DNA Replication and Repair” (PLoS Biology, 2010).

B1: pol30-Msh6E6: PCNA mutant evolved for Msh6, IDCL sequence DYDKDLLKIIEL (protein)
chain: MLEAKFEEASLFKRIIDGFKDCVQLVNFQCKEDGIIAQAVDDSRVLLVSLEIGVEAFQEYRCDHPVTLGMDLTSLSKILRCGNNTDTLTLIADNTPDSIILLFEDTKKDRIAEYSLKLMDYDKDLLKIIELQYDSTLSLPSSEFSKIVRDLSQLSDSINIMITKETIKFVADGDIGSGSVIIKPFVDMEHPETSIKLEMDQPVDLTFGAKYLLDIIKGSSLSDRVGIRLSSEAPALFQFDLKSGFLQFFLAPKFNDEE
modifications: left off: Gal4 activation domain, end not stated, kept
B2: pol30-Pol32E9 (protein)
chain: MLEAKFEEASLFKRIIDGFKDCVQLVNFQCKEDGIIAQAVDDSRVLLVSLEIGVEAFQEYRCDHPVTLGMDLTSLSKILRCGNNTDTLTLIADNTPDSIILLFEDTKKDRIAEYSLKLMDNDVDSLKIIELQYDSTLSLPSSEFSKIVRDLSQLSDSINIMITKETIKFVADGDIGSGSVIIKPFVDMEHPETSIKLEMDQPVDLTFGAKYLLDIIKGSSLSDRVGIRLSSEAPALFQFDLKSGFLQFFLAPKFNDEE
modifications: left off: Gal4 activation domain, end not stated, kept
B3: pol30-Rad30E9: PCNA mutant evolved for Rad30, IDCL sequence DNDWDFLKIDEL (protein)
chain: MLEAKFEEASLFKRIIDGFKDCVQLVNFQCKEDGIIAQAVDDSRVLLVSLEIGVEAFQEYRCDHPVTLGMDLTSLSKILRCGNNTDTLTLIADNTPDSIILLFEDTKKDRIAEYSLKLMDNDWDFLKIDELQYDSTLSLPSSEFSKIVRDLSQLSDSINIMITKETIKFVADGDIGSGSVIIKPFVDMEHPETSIKLEMDQPVDLTFGAKYLLDIIKGSSLSDRVGIRLSSEAPALFQFDLKSGFLQFFLAPKFNDEE
modifications: left off: Gal4 activation domain, end not stated, kept
B4: pol30-Rad30E2: PCNA mutant evolved for Rad30, IDCL sequence DDDWDFLKILEL (protein)
chain: MLEAKFEEASLFKRIIDGFKDCVQLVNFQCKEDGIIAQAVDDSRVLLVSLEIGVEAFQEYRCDHPVTLGMDLTSLSKILRCGNNTDTLTLIADNTPDSIILLFEDTKKDRIAEYSLKLMDDDWDFLKILELQYDSTLSLPSSEFSKIVRDLSQLSDSINIMITKETIKFVADGDIGSGSVIIKPFVDMEHPETSIKLEMDQPVDLTFGAKYLLDIIKGSSLSDRVGIRLSSEAPALFQFDLKSGFLQFFLAPKFNDEE
modifications: left off: Gal4 activation domain, end not stated, kept
B5: pol30-79: previously studied PCNA mutant with decreased partner binding, IDCL sequence DIDADFAKAEEL (protein)
chain: MLEAKFEEASLFKRIIDGFKDCVQLVNFQCKEDGIIAQAVDDSRVLLVSLEIGVEAFQEYRCDHPVTLGMDLTSLSKILRCGNNTDTLTLIADNTPDSIILLFEDTKKDRIAEYSLKLMDIDADFAKAEELQYDSTLSLPSSEFSKIVRDLSQLSDSINIMITKETIKFVADGDIGSGSVIIKPFVDMEHPETSIKLEMDQPVDLTFGAKYLLDIIKGSSLSDRVGIRLSSEAPALFQFDLKSGFLQFFLAPKFNDEE
modifications: left off: Gal4 activation domain, end not stated, kept
B6: pol30-Msh6E2: PCNA mutant evolved for Msh6, IDCL sequence DYDRDMLKISEL (protein)
chain: MLEAKFEEASLFKRIIDGFKDCVQLVNFQCKEDGIIAQAVDDSRVLLVSLEIGVEAFQEYRCDHPVTLGMDLTSLSKILRCGNNTDTLTLIADNTPDSIILLFEDTKKDRIAEYSLKLMDYDRDMLKISELQYDSTLSLPSSEFSKIVRDLSQLSDSINIMITKETIKFVADGDIGSGSVIIKPFVDMEHPETSIKLEMDQPVDLTFGAKYLLDIIKGSSLSDRVGIRLSSEAPALFQFDLKSGFLQFFLAPKFNDEE
modifications: left off: Gal4 activation domain, end not stated, kept

What was measured:
Assay in all cases: Yeast two hybrid (Y2H) analysis of PCNA-partner interaction
Type in all cases: binding
Msh6 = conditions: for Binding of PCNA Mutants to Target Partners: Msh6 (Y2H): YRG2 strain, growth on selective agar plates lacking histidine, growth similar to WT PCNA denoted as 1; for Binding of PCNA Mutants to Target Partners: Msh6, fold increase or decrease (quantitative Y2H): footnote c: generation time in liquid selective media lacking histidine relative to cells expressing WT PCNA, average of at least 3 independent experiments
Protocol: (§1) For the Y2H assay, we used the YRG2 host strain, shown to be highly efficient in coupling the strength of protein-protein interactions with growth on media lacking histidine. Selected PCNA mutants were characterized for their ability to bind each of 12 main PCNA partners to obtain specificity profiles (Table 1, Table S1, and Figures S4–S5). […] However, in some cases a strong trade-off between the bindings of different partners was observed.
(§2) Y2H analysis was performed using the Yeast Two Hybrid Phagemid vector kit (Stratagene), following the manufacturer's instructions. The pAD-PCNA-WT/mutant plasmids were used as bait while plasmids encoding 12 different PCNA partners (Table 1 and Table S1) were used as prey. The YRG2 host strain (Stratagene) was cotransformed with pAD-PCNA WT/mutant and pBD-partner plasmids in all possible combinations using the LiAC method. Single transformants were grown in liquid SC-Leu-Trp to O.D600 10, washed twice with DDW, and diluted to an initial OD600 of 0.3. A series of 10-fold serial dilutions was then spotted onto selective SC-Leu-Trp-His plates and incubated at 30°C for 3 d. For quantitative Y2H, the generation time of the indicated mutants and their respective partners were calculated from their growth curves in liquid SC-Leu-Trp-His media. Cells were grown overnight in SC-Leu-Trp, washed twice with ddH2O, and diluted by a factor of 1∶50 into 10 ml of pre-warmed SC-Leu-Trp-His. O.D600 measurements of the cultures were taken at the indicated time; the generation time (τ) was calculated from the growth curves according to the equation ODt = OD0×2^t/τ. The generation time calculated for each culture is an average of at least 3 independent experiments.

Rad27 = conditions: for Binding of PCNA Mutants to Target Partners: Rad27, fold increase or decrease (quantitative Y2H): footnote c: generation time in liquid selective media lacking histidine relative to cells expressing WT PCNA, average of at least 3 independent experiments
Protocol: as §1, §2

Pol32 = conditions: for Binding of PCNA Mutants to Target Partners: Pol32 (Y2H): YRG2 strain, growth on selective agar plates lacking histidine, growth similar to WT PCNA denoted as 1; for Binding of PCNA Mutants to Target Partners: Pol32, fold increase or decrease (quantitative Y2H): footnote c: generation time in liquid selective media lacking histidine relative to cells expressing WT PCNA, average of at least 3 independent experiments
Protocol: as §1, §2

Rad30 = conditions: for Binding of PCNA Mutants to Target Partners: Rad30 (Y2H): YRG2 strain, growth on selective agar plates lacking histidine, growth similar to WT PCNA denoted as 1; for Binding of PCNA Mutants to Target Partners: Rad30, fold increase or decrease (quantitative Y2H): footnote c: generation time in liquid selective media lacking histidine relative to cells expressing WT PCNA, average of at least 3 independent experiments
Protocol: as §1, §2

Ung1 = conditions: for Binding of PCNA Mutants to Target Partners: Ung1 (Y2H): YRG2 strain, growth on selective agar plates lacking histidine, growth similar to WT PCNA denoted as 1
Protocol: as §1, §2

Msh3 = system: Msh3; design: key: ++: major increase in growth; +: moderate increase in growth; similar growth as the WT PCNA-expressing cells; -: minor decrease in growth; --: moderate decrease in growth; ---: major decrease in growth; conditions: spotting onto selective agar plates; PCNA fused to AD, partner to BD
Rrm3 = system: Rrm3; design: key: ++: major increase in growth; +: moderate increase in growth; similar growth as the WT PCNA-expressing cells; -: minor decrease in growth; --: moderate decrease in growth; ---: major decrease in growth; conditions: spotting onto selective agar plates; PCNA fused to AD, partner to BD
Cdc9 = system: Cdc9; design: key: ++: major increase in growth; +: moderate increase in growth; similar growth as the WT PCNA-expressing cells; -: minor decrease in growth; --: moderate decrease in growth; ---: major decrease in growth; conditions: spotting onto selective agar plates; PCNA fused to AD, partner to BD
Cac1 = system: Cac1; design: key: ++: major increase in growth; +: moderate increase in growth; similar growth as the WT PCNA-expressing cells; -: minor decrease in growth; --: moderate decrease in growth; ---: major decrease in growth; conditions: spotting onto selective agar plates; PCNA fused to AD, partner to BD
Eco1 = system: Eco1; design: key: ++: major increase in growth; +: moderate increase in growth; similar growth as the WT PCNA-expressing cells; -: minor decrease in growth; --: moderate decrease in growth; ---: major decrease in growth; conditions: spotting onto selective agar plates; PCNA fused to AD, partner to BD

| Molecule | Binding of PCNA Mutants to Target Partners: Msh6 (Y2H) (Msh6) | Binding of PCNA Mutants to Target Partners: Rad27 (Y2H) (Rad27; YRG2 strain, growth on selective agar plates lacking histidine, growth similar to WT PCNA denoted as 1) | Binding of PCNA Mutants to Target Partners: Pol32 (Y2H) (Pol32) | Binding of PCNA Mutants to Target Partners: Rad30 (Y2H) (Rad30) | Binding of PCNA Mutants to Target Partners: Ung1 (Y2H) (Ung1) | Binding of PCNA Mutants to Target Partners: Msh6, fold increase or decrease (quantitative Y2H) (Msh6) | Y2H growth relative to WT PCNA-expressing strain: Msh3 (Msh3) | Y2H growth relative to WT PCNA-expressing strain: Rrm3 (Rrm3) | Y2H growth relative to WT PCNA-expressing strain: Cdc9 (Cdc9) | Y2H growth relative to WT PCNA-expressing strain: Cac1 (Cac1) | Y2H growth relative to WT PCNA-expressing strain: Eco1 (Eco1) | Binding of PCNA Mutants to Target Partners: Pol32, fold increase or decrease (quantitative Y2H) (Pol32) | Binding of PCNA Mutants to Target Partners: Rad27, fold increase or decrease (quantitative Y2H) (Rad27) | Binding of PCNA Mutants to Target Partners: Rad30, fold increase or decrease (quantitative Y2H) (Rad30) | Binding of PCNA Mutants to Target Partners: Ung1, fold increase or decrease (quantitative Y2H) (Ung1; footnote c: generation time in liquid selective media lacking histidine relative to cells expressing WT PCNA, average of at least 3 independent experiments) |
| --- | --- | --- | --- | --- | --- | --- | --- | --- | --- | --- | --- | --- | --- | --- | --- |
| POL30: wild-type yeast PCNA (POL30), IDCL sequence DIDADFLKIEEL | 1 | 1 | 1 | 1 | 1 |  |  |  |  |  |  |  |  |  |  |
| B1 |  |  | 1 | 1 | 1 | 1.4 fold | ++ | WT | WT | WT | WT |  |  |  |  |
| B2 | 1 |  |  | 1 | 1 |  | WT | WT | - | WT | WT | 1.3 fold |  |  |  |
| B3 | 1 |  | 1 |  | 1 |  | WT | WT | WT | WT | WT |  | 0.5 ^c fold | 1.6 fold |  |
| B4 | 1 |  |  |  | 1 |  | WT | WT | WT | WT | WT | 0.4 ^c fold | 0.4 ^c fold | 1.4 ^c fold |  |
| B5 |  |  |  |  |  | 0.4 ^c fold | --- | --- | --- | --- | --- | 0.3 ^c fold | 0.5 ^c fold | 0.4 ^c fold | 0.3 ^c fold |
| B6 |  |  | 1 | 1 | 1 | 1.4 ^c fold | + | WT | WT | WT | WT |  |  |  |  |
